B1: toripalimab Fab, wild type (Fab, V domains shown)
VH: QGQLVQSGAEVKKPGASVKVSCKASGYTFTDYEMHWVRQAPIHGLEWIGVIESETGGTAYNQKFKGRVTITADKSTSTAYMELSSLRSEDTAVYYCAREGITTVATTYYWYFDVWGQGTTVTVSS
VL: DVVMTQSPLSLPVTLGQPASISCRSSQSIVHSNGNTYLEWYLQKPGQSPQLLIYKVSNRFSGVPDRFSGSGSGTDFTLKISRVEAEDVGVYYCFQGSHVPLTFGQGTKLEIK
notes: toripalimab Fab heavy chain; toripalimab stands in PDB 6JBT; toripalimab Fab light chain; also called WT; source: Brevibacillus, culture supernatant (ammonium sulfate precipitate); not shown: 6xHis, C-terminal, kept; 6xHN, C-terminal, kept
B2: toripalimab Fab H.W110A (Fab, V domains shown)
VH: QGQLVQSGAEVKKPGASVKVSCKASGYTFTDYEMHWVRQAPIHGLEWIGVIESETGGTAYNQKFKGRVTITADKSTSTAYMELSSLRSEDTAVYYCAREGITTVATTYYAYFDVWGQGTTVTVSS
VL: DVVMTQSPLSLPVTLGQPASISCRSSQSIVHSNGNTYLEWYLQKPGQSPQLLIYKVSNRFSGVPDRFSGSGSGTDFTLKISRVEAEDVGVYYCFQGSHVPLTFGQGTKLEIK
notes: heavy chain of Sm3 with this change; numbers count from the chain's first residue; as the light chain of Sm3; source: Brevibacillus, culture supernatant (ammonium sulfate precipitate); not shown: 6xHis, C-terminal, kept; 6xHN, C-terminal, kept
B3: toripalimab Fab H.T102Y (Fab, V domains shown)
VH: QGQLVQSGAEVKKPGASVKVSCKASGYTFTDYEMHWVRQAPIHGLEWIGVIESETGGTAYNQKFKGRVTITADKSTSTAYMELSSLRSEDTAVYYCAREGIYTVATTYYWYFDVWGQGTTVTVSS
VL: DVVMTQSPLSLPVTLGQPASISCRSSQSIVHSNGNTYLEWYLQKPGQSPQLLIYKVSNRFSGVPDRFSGSGSGTDFTLKISRVEAEDVGVYYCFQGSHVPLTFGQGTKLEIK
notes: as for B2
B4: toripalimab Fab H.F112A (Fab, V domains shown)
VH: QGQLVQSGAEVKKPGASVKVSCKASGYTFTDYEMHWVRQAPIHGLEWIGVIESETGGTAYNQKFKGRVTITADKSTSTAYMELSSLRSEDTAVYYCAREGITTVATTYYWYADVWGQGTTVTVSS
VL: DVVMTQSPLSLPVTLGQPASISCRSSQSIVHSNGNTYLEWYLQKPGQSPQLLIYKVSNRFSGVPDRFSGSGSGTDFTLKISRVEAEDVGVYYCFQGSHVPLTFGQGTKLEIK
notes: as for B2
B5: toripalimab Fab H.T103Y (Fab, V domains shown)
VH: QGQLVQSGAEVKKPGASVKVSCKASGYTFTDYEMHWVRQAPIHGLEWIGVIESETGGTAYNQKFKGRVTITADKSTSTAYMELSSLRSEDTAVYYCAREGITYVATTYYWYFDVWGQGTTVTVSS
VL: DVVMTQSPLSLPVTLGQPASISCRSSQSIVHSNGNTYLEWYLQKPGQSPQLLIYKVSNRFSGVPDRFSGSGSGTDFTLKISRVEAEDVGVYYCFQGSHVPLTFGQGTKLEIK
notes: as for B2
B6: toripalimab Fab H.D113Y (Fab, V domains shown)
VH: QGQLVQSGAEVKKPGASVKVSCKASGYTFTDYEMHWVRQAPIHGLEWIGVIESETGGTAYNQKFKGRVTITADKSTSTAYMELSSLRSEDTAVYYCAREGITTVATTYYWYFYVWGQGTTVTVSS
VL: DVVMTQSPLSLPVTLGQPASISCRSSQSIVHSNGNTYLEWYLQKPGQSPQLLIYKVSNRFSGVPDRFSGSGSGTDFTLKISRVEAEDVGVYYCFQGSHVPLTFGQGTKLEIK
notes: as for B2
B7: toripalimab Fab H.Y111A (Fab, V domains shown)
VH: QGQLVQSGAEVKKPGASVKVSCKASGYTFTDYEMHWVRQAPIHGLEWIGVIESETGGTAYNQKFKGRVTITADKSTSTAYMELSSLRSEDTAVYYCAREGITTVATTYYWAFDVWGQGTTVTVSS
VL: DVVMTQSPLSLPVTLGQPASISCRSSQSIVHSNGNTYLEWYLQKPGQSPQLLIYKVSNRFSGVPDRFSGSGSGTDFTLKISRVEAEDVGVYYCFQGSHVPLTFGQGTKLEIK
notes: as for B2
B8: toripalimab Fab H.I101A (Fab, V domains shown)
VH: QGQLVQSGAEVKKPGASVKVSCKASGYTFTDYEMHWVRQAPIHGLEWIGVIESETGGTAYNQKFKGRVTITADKSTSTAYMELSSLRSEDTAVYYCAREGATTVATTYYWYFDVWGQGTTVTVSS
VL: DVVMTQSPLSLPVTLGQPASISCRSSQSIVHSNGNTYLEWYLQKPGQSPQLLIYKVSNRFSGVPDRFSGSGSGTDFTLKISRVEAEDVGVYYCFQGSHVPLTFGQGTKLEIK
notes: as for B2
B9: toripalimab Fab L.H31A (Fab, V domains shown)
VH: QGQLVQSGAEVKKPGASVKVSCKASGYTFTDYEMHWVRQAPIHGLEWIGVIESETGGTAYNQKFKGRVTITADKSTSTAYMELSSLRSEDTAVYYCAREGITTVATTYYWYFDVWGQGTTVTVSS
VL: DVVMTQSPLSLPVTLGQPASISCRSSQSIVASNGNTYLEWYLQKPGQSPQLLIYKVSNRFSGVPDRFSGSGSGTDFTLKISRVEAEDVGVYYCFQGSHVPLTFGQGTKLEIK
notes: as the heavy chain of Sm3; light chain of Sm3 with this change; numbers count from the chain's first residue; source: Brevibacillus, culture supernatant (ammonium sulfate precipitate); not shown: 6xHis, C-terminal, kept; 6xHN, C-terminal, kept
B10: toripalimab Fab H.T102A (Fab, V domains shown)
VH: QGQLVQSGAEVKKPGASVKVSCKASGYTFTDYEMHWVRQAPIHGLEWIGVIESETGGTAYNQKFKGRVTITADKSTSTAYMELSSLRSEDTAVYYCAREGIATVATTYYWYFDVWGQGTTVTVSS
VL: DVVMTQSPLSLPVTLGQPASISCRSSQSIVHSNGNTYLEWYLQKPGQSPQLLIYKVSNRFSGVPDRFSGSGSGTDFTLKISRVEAEDVGVYYCFQGSHVPLTFGQGTKLEIK
notes: as for B2
B11: toripalimab Fab H.Y108A (Fab, V domains shown)
VH: QGQLVQSGAEVKKPGASVKVSCKASGYTFTDYEMHWVRQAPIHGLEWIGVIESETGGTAYNQKFKGRVTITADKSTSTAYMELSSLRSEDTAVYYCAREGITTVATTAYWYFDVWGQGTTVTVSS
VL: DVVMTQSPLSLPVTLGQPASISCRSSQSIVHSNGNTYLEWYLQKPGQSPQLLIYKVSNRFSGVPDRFSGSGSGTDFTLKISRVEAEDVGVYYCFQGSHVPLTFGQGTKLEIK
notes: as for B2
B12: toripalimab Fab H.I101Y (Fab, V domains shown)
VH: QGQLVQSGAEVKKPGASVKVSCKASGYTFTDYEMHWVRQAPIHGLEWIGVIESETGGTAYNQKFKGRVTITADKSTSTAYMELSSLRSEDTAVYYCAREGYTTVATTYYWYFDVWGQGTTVTVSS
VL: DVVMTQSPLSLPVTLGQPASISCRSSQSIVHSNGNTYLEWYLQKPGQSPQLLIYKVSNRFSGVPDRFSGSGSGTDFTLKISRVEAEDVGVYYCFQGSHVPLTFGQGTKLEIK
notes: as for B2
B13: toripalimab Fab L.H31Y (Fab, V domains shown)
VH: QGQLVQSGAEVKKPGASVKVSCKASGYTFTDYEMHWVRQAPIHGLEWIGVIESETGGTAYNQKFKGRVTITADKSTSTAYMELSSLRSEDTAVYYCAREGITTVATTYYWYFDVWGQGTTVTVSS
VL: DVVMTQSPLSLPVTLGQPASISCRSSQSIVYSNGNTYLEWYLQKPGQSPQLLIYKVSNRFSGVPDRFSGSGSGTDFTLKISRVEAEDVGVYYCFQGSHVPLTFGQGTKLEIK
notes: as for B9
B14: toripalimab Fab H.D113A (Fab, V domains shown)
VH: QGQLVQSGAEVKKPGASVKVSCKASGYTFTDYEMHWVRQAPIHGLEWIGVIESETGGTAYNQKFKGRVTITADKSTSTAYMELSSLRSEDTAVYYCAREGITTVATTYYWYFAVWGQGTTVTVSS
VL: DVVMTQSPLSLPVTLGQPASISCRSSQSIVHSNGNTYLEWYLQKPGQSPQLLIYKVSNRFSGVPDRFSGSGSGTDFTLKISRVEAEDVGVYYCFQGSHVPLTFGQGTKLEIK
notes: as for B2
B15: toripalimab Fab H.G100Y (Fab, V domains shown)
VH: QGQLVQSGAEVKKPGASVKVSCKASGYTFTDYEMHWVRQAPIHGLEWIGVIESETGGTAYNQKFKGRVTITADKSTSTAYMELSSLRSEDTAVYYCAREYITTVATTYYWYFDVWGQGTTVTVSS
VL: DVVMTQSPLSLPVTLGQPASISCRSSQSIVHSNGNTYLEWYLQKPGQSPQLLIYKVSNRFSGVPDRFSGSGSGTDFTLKISRVEAEDVGVYYCFQGSHVPLTFGQGTKLEIK
notes: as for B2
B16: toripalimab Fab H.E33Y (Fab, V domains shown)
VH: QGQLVQSGAEVKKPGASVKVSCKASGYTFTDYYMHWVRQAPIHGLEWIGVIESETGGTAYNQKFKGRVTITADKSTSTAYMELSSLRSEDTAVYYCAREGITTVATTYYWYFDVWGQGTTVTVSS
VL: DVVMTQSPLSLPVTLGQPASISCRSSQSIVHSNGNTYLEWYLQKPGQSPQLLIYKVSNRFSGVPDRFSGSGSGTDFTLKISRVEAEDVGVYYCFQGSHVPLTFGQGTKLEIK
notes: as for B2
B17: toripalimab Fab H.T103A (Fab, V domains shown)
VH: QGQLVQSGAEVKKPGASVKVSCKASGYTFTDYEMHWVRQAPIHGLEWIGVIESETGGTAYNQKFKGRVTITADKSTSTAYMELSSLRSEDTAVYYCAREGITAVATTYYWYFDVWGQGTTVTVSS
VL: DVVMTQSPLSLPVTLGQPASISCRSSQSIVHSNGNTYLEWYLQKPGQSPQLLIYKVSNRFSGVPDRFSGSGSGTDFTLKISRVEAEDVGVYYCFQGSHVPLTFGQGTKLEIK
notes: as for B2

T1 sequence (Q15116 24-167 C93S): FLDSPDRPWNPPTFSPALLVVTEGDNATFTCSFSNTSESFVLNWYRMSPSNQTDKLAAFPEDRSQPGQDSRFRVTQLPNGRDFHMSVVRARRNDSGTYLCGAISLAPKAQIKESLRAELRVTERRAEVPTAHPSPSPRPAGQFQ

The assay concerns the target T1, human programmed cell death protein 1 (hPD-1) C93S (aa 24-167) (Homo sapiens, UniProt Q15116, C93S).
T1 construct: made as a fusion with a TEV site and human Fc; the Fc was cut off with TEV protease; source: Expi293F, purified (Protein A, TEV cleavage of Fc, SEC; monomer fractions); not shown: Fc (human), C-terminal, cleaved
Put plainly: SPR; Carterra LSA; Fab from the ammonium sulfate precipitate of the culture supernatant immobilised on a NiHC200M chip; hPD-1 (1-1024 nM) or mPD-1-Fc (4-1024 nM) as analyte, fourfold dilution series, no regeneration; HBS-EP pH 7.4, 25 °C; medians over the spots of a construct, KD = koff/kon. As to conditions: one partner purified. A digest of the protocol:
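On a Carterra LSA at 25 °C, duplicate captures of Fabs were made on a NiHC200M chip; the Fabs came from Brevibacillus culture supernatants, were precipitated with ammonium sulfate and were redissolved in HBS-EP. Fourfold series of human PD-1 (1–1024 nM) or mouse PD-1-Fc (4–1024 nM) were passed over without regeneration, with 10 min association and 5 min dissociation. Binders that were not confirmed were assigned kon 10^3 […] and koff 10^−2 s^−1. The kdka model, run with slow- or fast-dissociation settings and keeping the better fit, gave the rates, and KD was taken as koff/kon from the median values for each construct.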
As for B1, the Kd is < 0.841 nM, the koff was < 1e-05 s⁻¹ and the kon was 11900 M⁻¹ s⁻¹.
For B2, the Kd is < 2.43 nM, the off-rate (koff) is < 1e-05 s⁻¹ and the kon was 4120 M⁻¹ s⁻¹.
B3 showed a Kd of 200 nM, a koff of 0.00148 s⁻¹ and a kon of 7420 M⁻¹ s⁻¹.
In turn, B4 showed a Kd of 6.2 nM, a koff of 2.72e-05 s⁻¹ and an on-rate (kon) of 4390 M⁻¹ s⁻¹.
For the molecule B5, the dissociation constant (Kd) is < 2.91 nM, the off-rate (koff) was < 1e-05 s⁻¹ and the on-rate constant (kon) was 3430 M⁻¹ s⁻¹.
Consider B6, for which the Kd is < 1.6 nM, the koff is < 1e-05 s⁻¹ and the kon amounted to 6230 M⁻¹ s⁻¹.
The matching figures for B7: 1610 nM, 0.0601 s⁻¹ and 37200 M⁻¹ s⁻¹.
As to B8, the Kd came out at 107 nM, the koff was found to be 0.000592 s⁻¹ and the on-rate (kon) was 5550 M⁻¹ s⁻¹.
B9: the affinity, expressed as Kd, was 57.3 nM; the koff worked out at 0.000589 s⁻¹; the kon amounted to 10300 M⁻¹ s⁻¹.
Molecule B10 displayed a Kd of 65.9 nM, a koff of 0.000404 s⁻¹ and a kon of 6130 M⁻¹ s⁻¹.
Turning to B11, the Kd turned out to be 48.6 nM, the koff is 0.000235 s⁻¹ and the kon was determined as 4840 M⁻¹ s⁻¹.
Consider B12, for which the Kd is 54.5 nM, the koff amounted to 0.000227 s⁻¹ and the kon stood at 4170 M⁻¹ s⁻¹.
B13 had a Kd of 17.2 nM, a koff of 0.000663 s⁻¹ and a kon of 38600 M⁻¹ s⁻¹.
As to B14, the Kd is < 1.79 nM, the koff is < 1e-05 s⁻¹ and the kon is 5600 M⁻¹ s⁻¹.
The matching figures for B15: 107 nM, 0.00166 s⁻¹ and 15500 M⁻¹ s⁻¹.
Molecule B16 returned a Kd of 430 nM, a koff of 0.00629 s⁻¹ and a kon of 14600 M⁻¹ s⁻¹.
B17: the Kd is < 1.2 nM, the koff is < 1e-05 s⁻¹ and the kon was 8350 M⁻¹ s⁻¹.

The term Kd denotes the equilibrium constant for the complex coming apart. A high value points to lower affinity. The term koff denotes a measure of how fast the partners let go of each other. Higher therefore signals fast dissociation. In general, kon refers to a measure of how fast the partners come together. A higher kon goes with faster complex formation.

The values above are taken from article PMC10663500, “High-throughput analysis system of interaction kinetics for data-driven antibody design” (Scientific Reports, 2023).
